Results on one molecule are retold here after article PMC3463608.

The experiment concerns the target His-tagged exomer complex (S. cerevisiae) (UniProt Q12114). The experiment can be described thus: pull-down; His-exomer complex immobilized on Ni-NTA beads, incubated with 150 ug/ml purified GST-Chs3 fragments at RT for 30 min; washes with B88G + 1% Tween 20 and B88G; SDS-PAGE and Coomassie staining; bound fragment quantified, normalized to Chs5p in the lane and to the wt pull-down; two independent experiments.

B1: GST-Chs3 (1–170) D19AE21A (domain or fragment)
chain: MTGLNGDDPDDYYLNLNQAEASLLRSRHSVGSGAPHRQGSLVRPERSRLNNPDNPHFYYAQKTQEQMNHLDVLPSSTGVNPNATRRSGSLRSKGSVRSKFSGRETDSYLLQDMNTTDKKASVKISDEGVAEDEFDKDGDVDNFEESSTQPINKSIKPLRKETNDTLSFWQ
Regarding B1, the level of binding, % of wt was 62 to 63 % of wt.
